The series concerns the molecule itself. In words: gradient fixation ultracentrifugation.

From publication doi:10.1101/2021.02.17.431743 (bioRxiv, 2021) come the findings set out here.

Several values for one entry are separate records, joined by “and”; a condition that tells them apart may be missing. Equal entries are not always repeated.

B1: HeV-RBP full ectodomain (head domain with intact stalk domain), dimeric fraction after gradient fixation (domain or fragment)
chain: QNYTRTTDNQALIKESLQSVQQQIKALTDKIGTEIGPKVSLIDTSSTITIPANIGLLGSKISQSTSSINENVNDKCKFTLPPLKIHECNISCPNPLPFREYRPISQGVSDLVGLPNQICLQKTTSTILKPRLISYTLPINTREGVCITDPLLAVDNGFFAYSHLEKIGSCTRGIAKQRIIGVGEVLDRGDKVPSMFMTNVWTPPNPSTIHHCSSTYHEDFYYTLCAVSHVGDPILNSTSWTESLSLIRLAVRPKSDSGDYNQKYIAITKVERGKYDKVMPYGPSGIKQGDTLYFPAVGFLPRTEFQYNDSNCPIIHCKYSKAENCRLSMGVNSKSHYILRSGLLKYNLSLGGDIILQFIEIADNRLTIGSPSKIYNSLGQPVFYQASYSWDTMIKLGDVDTVDPLRVQWRNNSVISRPGQSQCPRFNVCPEVCWEGTYNDAFLIDRLNWVSAGVYLNSNQTAENPVFAVFKDNEILYQVPLAEDDTNAQKTITDCFLLENVIWCISLVEIYDTGDSVIRPKLFAVKIPAQCSES
As to B1, the stoichiometry N (commonly the number of molecules, sites or subunits per partner or assembly) is 2 and 4.
